The supplement of paper PMC7125110
± gives the standard error. For part of these data: Fewer inactive variants are shown than the library holds.

B1: glmS ribozyme (parent)
chain: AUAAAAGCGCCAGAACUACAGAAAUGUAGUUGACGAGGAGGAGGUUUAUCGAAUUUUCGGCGGAUGCCUCCAAA

Columns and labels:
Details in all cases: with glucosamine-6-phosphate
glucosamine-6-phosphate [1] = variants of: B1; experiment: kcat; higher = faster cleavage; RNA array
Outline: (§1)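 Barcoded ribozyme variants on sequenced MiSeq chips were transcribed in situ by E. coli RNA polymerase and followed at 37 °C through a hybridised Cy3 probe. Glucosamine-6-phosphate at 40 μM to 10 mM in HEPES/KCl/Mg(OAc)2 buffer was flowed in, and tiles were imaged over ~14 h. Signals were normalised to baseline and to non-cleaving reference variants, and per-tile medians were fit to one- or two-exponential decays to give kobs. Weighted Michaelis–Menten fits across concentrations gave kcat and KM.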

glucosamine-6-phosphate [2] = variants of: B1; experiment: KM; higher = weaker cofactor use; RNA array
Outline: as §1

glucosamine-6-phosphate [3] = variants of: B1; experiment: self-cleavage kobs at 40 uM GlcN6P; higher = faster cleavage; RNA array
Outline: as §1

glucosamine-6-phosphate [4] = variants of: B1; experiment: self-cleavage kobs at 160 uM GlcN6P; higher = faster cleavage; RNA array
Outline: as §1

glucosamine-6-phosphate [5] = variants of: B1; experiment: self-cleavage kobs at 640 uM GlcN6P; higher = faster cleavage; RNA array
Outline: as §1

glucosamine-6-phosphate [6] = variants of: B1; experiment: self-cleavage kobs at 2500 uM GlcN6P; higher = faster cleavage; RNA array
Outline: as §1

glucosamine-6-phosphate [7] = variants of: B1; experiment: self-cleavage kobs at 10000 uM GlcN6P; higher = faster cleavage; RNA array
Outline: as §1

| Variant | kcat (glucosamine-6-phosphate [1]) [s⁻¹] | KM (glucosamine-6-phosphate [2]) [µM] | self-cleavage kobs at 40 uM GlcN6P (glucosamine-6-phosphate [3]) [s⁻¹] | self-cleavage kobs at 160 uM GlcN6P (glucosamine-6-phosphate [4]) [s⁻¹] | self-cleavage kobs at 640 uM GlcN6P (glucosamine-6-phosphate [5]) [s⁻¹] | self-cleavage kobs at 2500 uM GlcN6P (glucosamine-6-phosphate [6]) [s⁻¹] | self-cleavage kobs at 10000 uM GlcN6P (glucosamine-6-phosphate [7]) [s⁻¹] |
| --- | --- | --- | --- | --- | --- | --- | --- |
| AUAAAAGCGCCAGAACUACAGAAAUGUAGUUGACGAGGAGGAUGUUUAUCGAAUUUUCGGCGGAUGCGUCCAAA [G43U C68G] | 0.00617 ± 0.0012 | 527 ± 180 | 0.000533 ± 9.6e-05 | 0.00129 ± 0.00028 | 0.00304 ± 0.00052 | 0.00416 ± 0.0011 | 0.00756 ± 0.0013 |
| AUAAAAGCGCCAGAACUACAGAAAUGUAGUCGACGAGGAGGAGGUUUAUCGAAUUUUCGGAGGAUGCCUCCAAA [U31C C61A] | 3.08e-05 ± 1.2e-05 | – | – | – | – | – | < 1e-05 |
| AUAAAAGCGCCAGAAAUACAGAAAUGUAGUUGACGAGGAGGAGGUUUAUCGAAUUUUCGGCGGAUGCCUCAAAA [C16A C71A] | 0.000128 ± 2e-05 | – | – | 3.26e-05 ± 1.3e-05 | 7.22e-05 ± 1.1e-05 | 0.000187 ± 3.1e-05 | 0.000114 ± 1.2e-05 |
| AUAAAAGCGCCAGAACUACAGAAAUGUAGUUGACGAGGAGGAGGUUUAUCGAAUUUCCGGCGGAUGCCGCCAAA [U57C U69G] | 2.77e-05 ± 6.2e-06 | – | – | 3.31e-05 ± 1.4e-05 | 3.38e-05 ± 1.3e-05 | – | – |
| AUAAAAGCGCCAGAACUACAGAAAUGUAGUUGACGAGAAGGAGGUUUAUCGAAUUUUCCGCGGAUGCCUCCAAA [G38A G59C] | < 1e-05 | – | < 1e-05 | – | < 1e-05 | – | < 1e-05 |
| AUAAAAGCGCCAGAACUACAGAAAUGUAGUUGACGAGGAGGAGGUUUAUCGAAUUUUCGUCGGAUCCCUCCAAA [G60U G66C] | < 1e-05 | – | – | – | – | – | < 1e-05 |
| AUAAAAGCGCCAGACCUACAGAAAUGUAGUUGACGAGGAGGAGGUUUAUCGAAUUUUCGGUGGAUGCCUCCAAA [A15C C61U] | < 1e-05 | – | < 1e-05 | < 1e-05 | < 1e-05 | – | – |
| AUAAAAGCGCCAGAACUACAGAAAUGUAGUUGACGAGGAGGAGGUUCAUCGAUUUUUCGGCGGAUGCCUCCAAA [U47C A53U] | 0.00157 ± 0.00025 | 1150 ± 280 | 4.38e-05 ± 9.7e-06 | 0.000209 ± 4.6e-05 | 0.000671 ± 0.00012 | 0.0012 ± 0.00023 | 0.00124 ± 0.00025 |
| AUAAAAGCGCCAGAACUACAGAAAUGUAGUUGACGAGGAGGAGGUUUAUCGAAUUUUUGGCGGAUGCCUUCAAA [C58U C70U] | 0.000128 ± 1.9e-05 | 4650 ± 1400 | – | – | – | 4.75e-05 ± 5.9e-06 | 8.61e-05 ± 8.8e-06 |
| AUAAAAGCGCCAGAACUACAGAAAUGUAGUUGACGAGGAGGAGGUUUAGCGAAGUUUCGGCGGAUGACUCCAAA [U49G U54G C67A] | 0.00023 ± 5.1e-05 | – | – | – | 0.000235 ± 5.1e-05 | 0.000269 ± 7.4e-05 | 0.000194 ± 3.6e-05 |
| AUAAAAGCGCCAGAAAUACAGAAAUGUAGUUGACGAGGAGGAGGUGUAUCGAAUUUUCGGCGGAUGCCUCCAAA [C16A U46G] | 0.000285 ± 5.2e-05 | 1720 ± 670 | – | – | 7.33e-05 ± 1.3e-05 | 0.000212 ± 3e-05 | 0.000222 ± 3.3e-05 |
| AUAAAAGCGCCACAACUACAGAAAUGUAGUUGACGAGGAGGAGGUUUGUCGAAUUUUCGGCGGAUGCCUCCAAA [G13C A48G] | < 1e-05 | – | – | – | – | < 1e-05 | < 1e-05 |
| AUAAAAGCGCCAGAACUACAGAAAUGUAGUUGACGAGGAGGAGGUUUAUCGAAUUUUCGGCGGAAGCAUCCAAA [U65A C68A] | 8.88e-05 ± 1.5e-05 | – | – | 5.78e-05 ± 1.6e-05 | 8.74e-05 ± 1.1e-05 | 0.00015 ± 2.2e-05 | 7.53e-05 ± 8.6e-06 |
| AUAAAAGCGCCAGAACUACAGAAAUGUAGUUGACGAGGAGGAGGUUUAUCGAAUUUUCGGCGGGUGUCUCCAAA [A64G C67U] | 0.00193 ± 0.0003 | 1860 ± 470 | 2.93e-05 ± 7.3e-06 | 0.000155 ± 2.3e-05 | 0.000628 ± 8.6e-05 | 0.00125 ± 0.00017 | 0.00154 ± 0.00015 |
| AUAAAAGCGCCAGAACUACAGAAAUGUAGUAGACGAGGAGCAGGUUUAUCGAAUUUUCGGCGGAUGCCUCCAAA [U31A G41C] | 0.000118 ± 1.6e-05 | 501 ± 200 | – | – | 6.84e-05 ± 1.6e-05 | 9.73e-05 ± 2.2e-05 | – |
| AUAAAAGCGCCUGAACUACAGAAAUGUAAUUGACGAGGAGGAGGUUUAUCGUAUUUUCGGCGGAUGCCUCCAAA [A12U G29A A52U] | 0.000494 ± 0.00016 | – | – | – | 4.42e-05 ± 1.6e-05 | 0.00021 ± 6.6e-05 | 0.000309 ± 7.1e-05 |
| AUAAAAGCGCCAGAACUACAGAAAUGUAGUUGACGAGGAGGAGGUUUAUCGAAUUUUCUGCGGAUGCCUUCAAA [G59U C70U] | 9.84e-05 ± 6.1e-06 | 899 ± 210 | – | – | 4.56e-05 ± 9.2e-06 | 6.69e-05 ± 8.1e-06 | 9.36e-05 ± 8.8e-06 |
